The values below come from patent US20210147574A1 (UNIVERSIT DEGLI STUDI DI FIRENZE, published 2021).

Experiment [1] deals with T1, hERG1 (human, UniProt Q12809 1-1159). Briefly: cell-based or functional assay.
Experiment [2] has as its target T1, hERG1. Briefly: immunofluorescence on fixed and live HEK293-hERG1 cells, intensity by ImageJ. As for the experimental part:
Then an immunofluorescence analysis was performed using scFv-hERG1-G3 and scFv-hERG1-D8Cys on fixed cells, to determine the immunoreactivity of the two antibodies. […] Data analysis obtained using ImageJ Software is reported in the graphs reported in panel C.
Cells were seeded O/N on glass coverslips and then washed once with PBS and fixed with 4% paraformaldeide for 20 min at room temperature. Blocking was performed with 10% BSA for 2 h at room temperature. Antibody incubation was performed using scFv-hERG1-G3, scFv-hERG1-D8Cys, diluted 1:20 in blocking solution and incubated for 2 and half hours, followed by anti-His (1:250; Abcam) O/N incubation in blocking solution. The following day, cells were washed three times with PBS and incubated with anti-mouse Alexa488 antibody (Invitrogen) for 1 h. Whereas, scFv-hERG1-G3-Alexa488 and scFv-hERG1-D8Cys-Alexa488, diluted 1:20 in blocking solution, were incubated O/N at 4° C.
Cells were grown O/N on 60 mm plates (Sarstedt) using an agarose (15 g/L) ring in order to isolate cells and minimize the volumes of reagents needed for incubations. Cells were incubated with scFv-hERG1-G3-Alexa488 and scFv-hERG1-D8Cys-Alexa488 diluted 1:20 in complete culture medium in a 37° C. incubator with 5% C02 for 4 h. Rivelation was performed using Hoechst, as previously described. Cells were visualized on a inverted light microscopy (Nikon, Eclipse TE300).

Experiment [3] deals with T2, S5-Pore peptide.
T2 construct: Peptide of the S5-pore extracellular portion of hERG1; also called S5PORO peptide; peptide S5PORO
T2 peptide: EQPHMDSRIGWLHN
The experiment can be described thus: binding to immobilized antigen (method section: ELISA on plates coated with S5-Pore peptide). As to the method: To evaluate if the two engineered antibodies, scFv-hERG1-G3 and scFv-hERG1-D8Cys, have still the ability to bind the antigen and afterwards to investigate the different affinity of the two antibodies ELISA assays were performed using plates coated with S5-Pore peptide (sequence: […]), towards which the antibody is directed. This peptide is the same we used to screen anti-hERG1 A7 antibody.
For orientation: An ELISA detects its analyte on a solid surface through an enzyme-linked reagent.

T1 sequence (Q12809 whole entry): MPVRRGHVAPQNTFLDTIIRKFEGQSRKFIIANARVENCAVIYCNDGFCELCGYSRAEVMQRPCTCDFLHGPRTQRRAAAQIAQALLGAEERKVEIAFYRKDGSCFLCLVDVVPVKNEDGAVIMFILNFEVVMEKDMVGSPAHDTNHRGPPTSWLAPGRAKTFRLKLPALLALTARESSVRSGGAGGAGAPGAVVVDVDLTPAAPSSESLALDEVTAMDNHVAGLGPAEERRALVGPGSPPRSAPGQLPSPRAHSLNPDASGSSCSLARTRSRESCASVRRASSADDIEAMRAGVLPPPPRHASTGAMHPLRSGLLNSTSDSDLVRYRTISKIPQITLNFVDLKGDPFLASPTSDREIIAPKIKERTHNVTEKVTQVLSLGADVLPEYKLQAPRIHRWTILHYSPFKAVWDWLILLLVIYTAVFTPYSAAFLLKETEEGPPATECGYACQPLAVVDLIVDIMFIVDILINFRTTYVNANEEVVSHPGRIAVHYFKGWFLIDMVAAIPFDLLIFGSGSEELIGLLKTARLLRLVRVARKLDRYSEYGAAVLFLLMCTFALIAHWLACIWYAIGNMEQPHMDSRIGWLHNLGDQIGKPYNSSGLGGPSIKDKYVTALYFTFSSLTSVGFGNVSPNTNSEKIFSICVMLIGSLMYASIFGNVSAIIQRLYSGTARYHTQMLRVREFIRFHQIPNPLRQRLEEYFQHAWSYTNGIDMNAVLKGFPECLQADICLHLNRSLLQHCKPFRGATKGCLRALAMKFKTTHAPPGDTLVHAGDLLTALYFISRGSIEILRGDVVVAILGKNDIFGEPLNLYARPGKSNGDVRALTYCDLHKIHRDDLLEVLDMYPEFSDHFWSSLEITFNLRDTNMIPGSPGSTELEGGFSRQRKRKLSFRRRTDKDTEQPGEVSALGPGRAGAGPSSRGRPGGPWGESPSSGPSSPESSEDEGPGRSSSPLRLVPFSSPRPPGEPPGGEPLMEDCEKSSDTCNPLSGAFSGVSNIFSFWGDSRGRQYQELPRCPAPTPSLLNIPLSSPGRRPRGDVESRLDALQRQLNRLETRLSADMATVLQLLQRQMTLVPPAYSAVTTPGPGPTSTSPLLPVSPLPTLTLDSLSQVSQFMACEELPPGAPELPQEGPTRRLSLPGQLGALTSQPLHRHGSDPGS

B1: scDb-hERG1-Cys-β1 (bispecific antibody)
chain: EAECADEVQLQQSGPELVKPGASVKISCKTSGYTFTEYTVHWVKQSHGKSLEWIGGINPNGGTTYNQKFKGKATLTIDKSSSSAFMELRSLTSEDSAVYYCATGWGPDYWGQGTTLTVSSAKTTPPSVYPLAPGSSDIVMTQTPTTMAASPGDKITITCSVSSIISSNYLHWYSQKPGFSPKLLIYRTSNLASGVPPRFSGSGSGTSYSLTIGTMEAEDVATYYCQQGSDIPLTFGDGTKLDLKRADAAPTVSGGGGSGGGGSGGGGSGGGGSEVKVVESGGGLVKPGGSLKLSCAASGFTFSSYTMSWVRQTPEKRLEWVATISSGGSYTYYPDSVKGRFTISRDKAKNTLYLQMGSLKSEDTAMYYCTRIGYDEDYAMDHWGQGTSVTVSSAKTTPPSVYSALDIVLTQSPLTLSVNIGQPASISCKSSQSLLYTNGKTYFNWLLQRPGQSPKRLIYLVSKLDSGVPDRFTGSGSGTDFTLKISRVEAEDLGVYYCAQGTHFPWTFGGGTKLEIKRADAAPTVSAAAEQKLISEEDLNGAPRHHHHHHHH
For B1, in experiment [1], the “IC50, cell viability of MDA-MB 231 cells” value is 42 µg/mL and the “IC50, cell viability of PANC-1 cells” value stood at 24 µg/mL.

B2: scFv-hERG1-D8Cys (scFv)
scFv: EVQLQQSGPELVKPGASVKISCKTSGYTFTEYTVHWVKQSHGKSLEWIGGINPNGGTTYNQKFKGKATLTIDKSSSSAFMELRSLTSEDSAVYYCATGWGPDYWGQGTTLTVSSAKTTPPSVYPLAPGSSGGGGSGGGGSGGSALDIVLTQSPLTLSVNIGQPASISCKSSQSLLYTNGKTYFNWLLQRPGQSPKRLIYLVSKLDSGVPDRFTGSGSGTDFTLKISRVEAEDLGVYYCAQGTHFPWTFGGGTKLEIKRADAAPTVSAAAEQKLISEEDLNGAA
notes: Clone D8, expressed in Pichia pastoris from pPIC9K with a 6xHis tag; Also tested after conjugation with Alexa 488; also called scFv-hERG1-Cys; anti-hERG1-Cys scFv
With B2, the binding result in experiment [2] and in experiment [3] was “binds” in each case.
